In PMC4004541, “PEG-Like Nanoprobes: Multimodal, Pharmacokinetically and Optically Tunable Nanomaterials” (PLoS ONE, 2014):

Columns and labels:
[1] = Quantum yield of fluorochrome-bearing peptides and PN's; assay type: physicochemical; details: means±1 S.D.
Text: (The p values showing significances are in Figure S2 in File S1). […] PEG attachment increased quantum yields in all cases, but as discussed below the magnitude of PEG generated improvement varied with the fluorochrome chosen. A mechanism for the PEG improvement of quantum yield is fluorochrome shielding, or the blocking of fluorochrome-fluorochrome interactions that result in quenching.
However, the magnitude of these benefits varied with the fluorochrome selected. […] Previous studies indicated PEGylated, fluorochrome-bearing peptides have absorption spectra in PBS similar to their unstacked absorption spectra in methanol. […] It appears that longer wavelength fluorochromes have stronger fluorochrome/fluorochrome stacking interactions, which result in more quenching, which is blocked by PEG and which gives rise to larger increases in quantum yield.

HT-29 cells = experiment: Non-specific binding (NSB) to HT-29 cells by FACS; assay type: cell-based, human; details: 100 μL of nanoprobes (2 μM) added to 100 μl 2% FBS/DPBS, 30 min at 37 °C, means±1 S.D.
Text: We next examined the non-specific binding (NSB) of PN’s to HT-29 cells based on the assumption that NSB minimization will correlate with a desirable minimization of post-IV injection retention. As noted above, after diagnostic drugs generate their added information, retention can only increase the risks of delayed toxicity. The attachment of PEG decreased the non-specific binding (NSB) to HT-29 cells, scored as the percent of cells above the cutoff for unstained cells seen with FACS ( Table 1 , column 7).
PN and peptide binding to cells (effect of PEGylation on NSB): HT-29, a human colon carcinoma cell line, was from the American Tissue Culture Collection and maintained according to their instructions. Cells were seeded on 24-well plates at 5X10^5 cells/well in culture medium (RPMI 1640 with 10% FBS) the day before the assay. The day of assay, medium was removed, wells rinsed twice with DPBS (+Ca, +Mg), and 100 μl of 2% FBS / DPBS (+Ca, +Mg) added. 100 μL of Nanoprobes (2 μM) in DPBS (+Ca, +Mg) was added to cells and incubated for 30min at 37 °C. (Probe concentrations were determined spectrophotometrically (783 nm, extinction coefficient of 314 471 cm^-1 M^-1 for IR-783; 497 nm, extinction coefficient of 68 000 cm^-1 M^-1 for Fluorescein; 545 nm, extinction coefficient of 150 000 cm^-1 M^-1 for Cy3). Cells were detached by Trypsin/EDTA and assayed for fluorescence by FACS (BD 7 laser LSR2 for nanoprobes with IR-783; BD 3 laser LSR2 for nanoprobes with Fluorescein or Cy3).
Figure S4: Effect of PEGylation on non-specific binding to cells by single channel FACS. […] Arrows indicates the cutoff for unstained cells.

[2] = Probe size (volume) by FPLC calibrated with globular protein standards; assay type: physicochemical; details: for Volume FPLC, globular protein equivalent molecular volume: Superdex 200 10/300GL, 0.05 M sodium phosphate, 0.1 M NaCl (0.1% Tween, pH 7.2), 0.8 ml/min, calibrated with globular protein standards; for Volume FPLC Dia. (diameter): globular protein equivalent volume from FPLC converted to spherical diameter by formula (ref 15)
Text: (§1) FPLC chromatograms are shown for PN’s bearing the IR-783 fluorochrome with PEG’s ranging from 2 to 40 kDa ( Figure 2A ). FPLC was calibrated with globular protein standards, and globular protein equivalent molecular volumes (in kDa) were obtained ( Table 1 , column 5). Next, these globular protein equivalent molecular volumes were converted to PN diameters in nm using the relationship: [drawing 1] where M is the molecular weight of a globular protein expressed in daltons. PN diameters ranged from 3.0 to 11.7 nm, which means PN’s can be smaller or larger than albumin (MW = 67 kDa; diameter = 5.4 nm, by the formula above). Thus Table 1 column 5 gives the PN volumes obtained from FPLC expressed in two ways: (i) as the molecular weight in kDa of globular proteins with equivalent volumes, permitting size comparison of PN’s to proteins, and, (ii) as spherical diameters (“Dia.”) in nm, permitting size comparisons of a PN to relative to other nanomaterials. We confirmed the sizes obtained with FPLC by measuring the size of PN(783)11.7 by dynamic light scattering (11.7 nm).
The mass spec of low molecular weight (MW) materials were obtained by MS-ESI Micromass (Waters) and high MW molecules were determined through MALDI-TOF analyses at the Tufts University Core Facility. RP-HPLC (Varian ProStar detector and delivery modules) employed an eluant A (0.1% TFA/water) and eluant B (0.1% TFA and 9.9% water in acetonitrile). Probe size (volume) was determined by FPLC using an ÄKTA Purifier 10 and SuperdexTM 200 10/300GL column (GE Healthcare) with a running buffer of 0.05 M sodium phosphate, 0.1 M NaCl (0.1% Tween, pH 7.2) and flow rate of 0.8 ml/min. Standards (GE Healthcare) were Ferritin, Ribonuclease A, Carbonic Anhydrase, and Conalbumin and Blue Dextran 2000. To obtain probe volumes, Mr (apparent molecular weight based on size exclusion retention) was plotted versus Kav. [drawing 7] , Vt = total volume, Ve = elution volume, Vo = void volume.
PN and peptide characterization: The mass spec of low molecular weights (MW) were obtained by MS-ESI Micromass (Waters) and high MW molecules were determined through MALDI-TOF analyses at the Tufts University Core Facility. RP-HPLC (Varian ProStar detector and delivery modules) employed an eluant A (0.1% TFA /water) and eluant B (0.1% TFA and 9.9% water in acetonitrile). […] Standards (GE Healthcare) were Ferritin, Ribonuclease A, Carbonic Anhydrase, and Conalbumin and Blue Dextran 2000. To obtain probe volumes, Mr (apparent molecular weight based on size exclusion retention) was plotted versus Kav. [picture] , Vt = total volume, Ve = elution volume, Vo = void volume.

[3] = Circulating form of PN's: FPLC of sera of injected mice; assay type: in vivo; details: 20 nmoles IV tail vein, nude mice, FPLC at 783 nm
Procedure: To see if the variable PN size could be translated into tunable pharmacokinetics, it was essential to first establish that PN’s circulated at PEG-determined, pre-injection dimensions. Mice were injected with PN’s and FPLC chromatograms of serum samples, taken at various times post injection ( Figures 2D, 2E and 2F ), compared with pre-injection PN samples. By using PN’s absorbing at 783 nm, chromatograms from the sera of injected mice reflect this PN, since there are no compounds in serum that absorb at this wavelength. […] Similarly, peaks for PN(783)6.1 ( Figure 2E ) and PN(783)4.3 ( Figure 2F ) where identical for pre-injection samples and for nanoprobes in the sera of injected mice. Thus, molecular weight of the PEG chosen determines PN dimensions in vitro and those dimensions are maintained after injection.
(§2) At the indicated time, 50 µl of blood was collected with microhematocrit capillary tube (Fisher Scientific) from the tail, and transferred to Eppendorf microcentrifuge tube with anticoagulant (EDTA) coating (Fisher Scientific). Tubes were centrifuged (5000 rpm for 5 min), and the supernatant was injected to the FPLC, a ÄKTA Purifier 10 with SuperdexTM 200 10/300GL column.
as §2, with “μl” for “µl”

[4] = Elimination by whole animal surface fluorescence imaging; assay type: in vivo; details: mice, after injection, n = 6
Procedure: Surface fluorescence images for representative animals are shown and total surface fluorescence is quantified in bar graphs to the right of the image. […] The pharmacokinetics and biodistributions of these PN’s is further analyzed below.
Figure 3 Role PEG in determining elimination by surface fluorescence imaging. A) Animals were injected with unPEGylated peptide and imaged at the times indicated. Bar graph gives whole animal surface fluorescence determined as means and standard deviations, n = 6.
(§3) A Kodak FX multispectral imaging system was used (Carestream Molecular Imaging, Rochester, NY). Excitation at multiple wavelengths (620, 650, 690, 710, 720, 730, 750 and 760 nm) with the emission at 830 nm was setup for IR-783 spectrum; Excitation at multiple wavelengths (420, 440, 460, 480, 510, 520, 530, and 540 nm) with the emission at 600 nm was setup for Cy3 spectrum; Excitation at multiple wavelengths (450, 470, 510, 520, 530, 540, 550, 570, and 590 nm) with the emission at 700 nm was setup for mCherry; with manufacturer’s software to separate (unmix) the IR-783 spectrum, Cy3 spectrum, or mCherry spectrum from skin autofluorescence and chlorophyll fluorescence from food. X-ray images were taken after fluorescence images. […]
as §3, with “Whole animal surface fluorescence imaging: All animal experiments in this work were approved by the Institutional Review Committee of the Massachusetts General Hospital. […]” for “A Kodak FX multispectral imaging system was used (Carestream Molecular Imaging, Rochester, NY).”

[5] = Size by dynamic light scattering; assay type: physicochemical; details: Nano-ZS Zetasizer, z-average
Text: as §1
Size by dynamic light scattering: Size was obtained on a Nano-ZS Zetasizer (Malvern, Medford, MA) and is expressed as the z-average.

Substance | Quant. Yield [1] | Cell NSB: percent of HT-29 cells above the cutoff for unstained cells (HT-29 cells) | Volume FPLC, globular protein equivalent molecular volume [2] | Volume FPLC Dia. (diameter) [2] | Circulating size: FPLC peaks of serum samples after injection versus pre-injection sample [3] | Elimination seen by whole animal surface fluorescence [4] | Size by dynamic light scattering [5]
(DOTA)Lys-Cys(Fl) [unPEGylated DOTA peptide with fluorescein on the cysteine side chain] | 0.50±0.11 | 0.4±0.1% |  |  |  |  | 
(DOTA)Lys(PEG 5 kDa)-Cys(Fl) [PN(497)4.3, PEG-like Nanoprobe: 5 kDa PEG, fluorescein, DOTA peptide] | 0.59±0.06 | 0.2±0.1% | 35 kDa | 4.3 nm |  |  | 
(DOTA)Lys(PEG 30 kDa)-Cys(Cy3) [PN(545)10.0, PEG-like Nanoprobe: 30 kDa PEG, Cy3 fluorochrome, DOTA peptide] | 0.61±0.10 | 15±1% | 435 kDa | 10.0 nm |  |  | 
(DOTA)Lys-Cys(Cy3) [unPEGylated DOTA peptide with Cy3 fluorochrome on the cysteine side chain] | 0.32±0.07 | 98±1% |  |  |  |  | 
(DOTA)Lys(PEG 5 kDa)-Cys(Cy3) [PN(545)4.3, PEG-like Nanoprobe: 5 kDa PEG, Cy3 fluorochrome, DOTA peptide] | 0.59±0.09 | 31±1% | 35 kDa | 4.3 nm |  |  | 
(DOTA)Lys(PEG 10 kDa)-Cys(IR-783) [PN(783)6.1, PEG-like Nanoprobe: 10 kDa PEG, IR-783 fluorochrome, DOTA peptide] | 0.16±0.03 | 14±1% | 100.7 kDa | 6.1 nm | identical |  | 
(DOTA)Lys(PEG 2 kDa)-Cys(IR-783) [PN(783)3.0, PEG-like Nanoprobe: 2 kDa PEG, IR-783 fluorochrome, DOTA peptide] | 0.13±0.02 | 50±1% | 11.2 kDa | 3.0 nm |  |  | 
(DOTA)Lys-Cys(IR-783) [unPEGylated DOTA peptide with IR-783 fluorochrome on the cysteine side chain] | 0.053±0.008 | 95±1% |  |  |  | slow and incomplete elimination | 
(DOTA)Lys(PEG 20 kDa)-Cys(IR 783) [PN(783)8.4, PEG-like Nanoprobe: 20 kDa PEG, IR-783 fluorochrome, DOTA peptide] | 0.16±0.04 | 14±1% | 262.5 kDa | 8.4 nm |  |  | 
(DOTA)Lys(PEG40 kDa)-Cys(IR-783) [PN(783)11.7, PEG-like Nanoprobe: 40 kDa PEG, IR-783 fluorochrome, DOTA peptide] | 0.16±0.02 | 17±1% | 690 kDa | 11.7 nm |  |  | 11.7 nm
